The record followed here is publication PMC9082959, “Mechanism of Assembly of the Non-Covalent Spectrin Tetramerization Domain from Intrinsically Disordered Partners” (Journal of molecular biology, 2013).

Experiment in all cases: ITC; β16β17 at 25–50 μM in the cell titrated with 15–20 injections to 2–2.5 eq of α0α1; one-site binding model; PBS (50 mM sodium phosphate, 150 mM NaCl, pH 7.04), 25 °C; mutants only against the wild-type partner
Details in all cases: both partners purified
A general note: In ITC the heat of successive injections is recorded.

For assay [1], the target named is β16β17 F51L (human, UniProt P11277 1898-2083, F51L (domain identifier), printed F2054G as protein identifier, The table's protein identifier F2054G is taken as a typo: the domain identifier is F51L (offset 2003), and the text says aromatic residues were mutated to Ala or Leu).
The target in assay [2] is T1, β16β17 L29A (human, UniProt P11277 1898-2083, L2032A).
T1 construct: erythrocyte β-spectrin, human, residues 1898-2083 (β16β17); mutant of m2; also called L2032A; source: E. coli C41(DE3), purified (Ni2+ agarose, thrombin cleavage, gel filtration)
T1 sequence (looked up): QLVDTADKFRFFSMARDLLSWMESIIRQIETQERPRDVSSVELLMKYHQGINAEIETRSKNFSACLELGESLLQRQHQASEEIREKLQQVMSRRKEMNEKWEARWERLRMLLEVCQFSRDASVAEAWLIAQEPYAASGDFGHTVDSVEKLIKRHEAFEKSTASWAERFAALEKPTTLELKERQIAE

The target of assay [3] is T2, β16β17 V41A (human, UniProt P11277 1898-2083, V2044A).
T2 construct: erythrocyte β-spectrin, human, residues 1898-2083 (β16β17); mutant of m2; also called V2044A; source: E. coli C41(DE3), purified (Ni2+ agarose, thrombin cleavage, gel filtration)
T2 sequence (looked up): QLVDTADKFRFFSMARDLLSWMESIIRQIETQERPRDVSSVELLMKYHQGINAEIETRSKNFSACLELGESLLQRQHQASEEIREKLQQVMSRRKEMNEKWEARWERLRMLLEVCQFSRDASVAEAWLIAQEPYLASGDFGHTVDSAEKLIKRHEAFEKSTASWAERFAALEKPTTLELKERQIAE

Assay [4] has as its target T3, β16β17 F62A (human, UniProt P11277 1898-2083, F2065A).
T3 construct: erythrocyte β-spectrin, human, residues 1898-2083 (β16β17); mutant of m2; also called F2065A; source: E. coli C41(DE3), purified (Ni2+ agarose, thrombin cleavage, gel filtration)
T3 sequence (looked up): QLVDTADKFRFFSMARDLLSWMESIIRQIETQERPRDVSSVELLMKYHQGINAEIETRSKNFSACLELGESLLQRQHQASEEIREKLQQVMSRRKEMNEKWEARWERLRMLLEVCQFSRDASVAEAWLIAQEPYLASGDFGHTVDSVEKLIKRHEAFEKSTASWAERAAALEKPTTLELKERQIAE

For assay [5], the target named is T4, β16β17 F62L (human, UniProt P11277 1898-2083, F2065L).
T4 construct: erythrocyte β-spectrin, human, residues 1898-2083 (β16β17); mutant of m2; also called F2065L; source: E. coli C41(DE3), purified (Ni2+ agarose, thrombin cleavage, gel filtration)
T4 sequence (looked up): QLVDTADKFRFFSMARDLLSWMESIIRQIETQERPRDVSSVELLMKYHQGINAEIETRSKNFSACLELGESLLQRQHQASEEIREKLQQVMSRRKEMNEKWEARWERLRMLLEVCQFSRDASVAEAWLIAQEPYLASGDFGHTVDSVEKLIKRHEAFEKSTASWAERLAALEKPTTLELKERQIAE

In assay [6] the target is T5, β16β17 E19A (human, UniProt P11277 1898-2083, E2022A).
T5 construct: erythrocyte β-spectrin, human, residues 1898-2083 (β16β17); mutant of m2; also called E2022A; source: E. coli C41(DE3), purified (Ni2+ agarose, thrombin cleavage, gel filtration)
T5 sequence (looked up): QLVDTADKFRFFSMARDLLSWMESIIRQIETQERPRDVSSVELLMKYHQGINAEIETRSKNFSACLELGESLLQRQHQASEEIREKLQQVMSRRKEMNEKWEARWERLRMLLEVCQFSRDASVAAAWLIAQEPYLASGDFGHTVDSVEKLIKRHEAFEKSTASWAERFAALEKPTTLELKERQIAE

Assay [7] deals with T6, β16β17 L22A (human, UniProt P11277 1898-2083, L2025A).
T6 construct: erythrocyte β-spectrin, human, residues 1898-2083 (β16β17); mutant of m2; also called L2025A; source: E. coli C41(DE3), purified (Ni2+ agarose, thrombin cleavage, gel filtration)
T6 sequence (looked up): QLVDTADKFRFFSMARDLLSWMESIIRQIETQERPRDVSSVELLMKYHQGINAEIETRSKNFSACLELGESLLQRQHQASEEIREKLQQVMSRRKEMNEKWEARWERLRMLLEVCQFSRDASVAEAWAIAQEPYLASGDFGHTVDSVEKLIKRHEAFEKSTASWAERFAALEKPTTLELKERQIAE

B1: α0α1 (erythrocyte α-spectrin residues 2–163), wild type (domain or fragment, human, UniProt P02549 2-163, looked up)
chain: EQFPKETVVESSGPKVLETAEEIQERRQEVLTRYQSFKERVAERGQKLEDSYHLQVFKRDADDLGKWIMEKVNILTDKSYEDPTNIQGKYQKHQSLEAEVQTKSRLMSELEKTREERFTMGHSAHEETKAHIEELRHLWDLLLELTLEKGDQLLRALKFQQY
notes: synthetic gene (GenScript) in a modified pRSETA plasmid; also called α1α0; source: E. coli C41(DE3), purified (Ni2+ agarose, thrombin cleavage, gel filtration)
B1: the Ka in assay [1] stood at 180000 M⁻¹; in assay [2], 290000 M⁻¹; in assay [3] it was 420000 M⁻¹; in assay [4] it was 13000 M⁻¹; in assay [5], 100000 M⁻¹; in assay [6], 93000 M⁻¹. This molecule also had a Ka in assay [7] of 6000 M⁻¹.
